Reference: article PMC8100066, “PIM-induced phosphorylation of Notch3 promotes breast cancer tumorigenicity in a CSL-independent fashion” (The Journal of Biological Chemistry, 2021)

Target: T1, mouse CSL (amino acid residues 53-474), conserved and structurally ordered core domain (mouse, UniProt P31266 53-474)
T1 construct: The SMT3 tag was cut off with ubiquitin-like protease and separated by ion exchange; also called RBPJ; mCSL
Experiment: ITC; CSL in the cell at 10 μM, RAM peptides in the syringe at 100 μM; 20 °C; 50 mM sodium phosphate, 150 mM sodium chloride; triplicate, 20 injections of 14 μl
Conditions: both partners purified

T1 sequence (P31266 53-474): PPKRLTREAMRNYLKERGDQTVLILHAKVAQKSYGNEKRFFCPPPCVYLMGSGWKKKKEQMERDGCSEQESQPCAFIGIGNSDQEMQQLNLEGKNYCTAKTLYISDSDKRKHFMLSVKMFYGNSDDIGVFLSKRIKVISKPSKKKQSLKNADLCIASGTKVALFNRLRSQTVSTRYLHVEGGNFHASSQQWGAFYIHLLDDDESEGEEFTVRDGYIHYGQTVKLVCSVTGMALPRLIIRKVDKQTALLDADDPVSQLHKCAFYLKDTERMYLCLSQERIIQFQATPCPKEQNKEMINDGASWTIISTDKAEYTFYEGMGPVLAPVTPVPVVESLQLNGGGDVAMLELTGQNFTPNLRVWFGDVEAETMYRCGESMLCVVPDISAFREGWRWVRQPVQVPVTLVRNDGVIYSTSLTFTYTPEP

B1: human NOTCH1 RAM peptide (residues 1754-1781) (peptide)
peptide: VLLSRKRRRQHGQLWFPEGFKVSEASKK
notes: NOTCH1, human, RAM domain, residues 1754-1781; also called N1RAM; source: synthetic peptide (Peptide2.0, 95% purity)
Q: Which Kd does the source give for B1 here?
A: 22 nM
